Reference: PMC9116965 (iScience, 2022)

B1: STS165 (full-length IgG form) (antibody, V domains shown)
VH: EVQLVESGGGVVRPGGSLRLSCAASGFTFDDYGMSWVRQAPGKGLEWVSGINWNGGSTGYADSVKGRFTISRDNAKNSLYLQMNSLRAEDTALYHCARVGYCGGDCYSLSLAGFPDYWGQGTLVTVSS
VL: not shown
B2: STS165 Fab form (Fab, V domains shown)
VH: EVQLVESGGGVVRPGGSLRLSCAASGFTFDDYGMSWVRQAPGKGLEWVSGINWNGGSTGYADSVKGRFTISRDNAKNSLYLQMNSLRAEDTALYHCARVGYCGGDCYSLSLAGFPDYWGQGTLVTVSS
VL: not shown

Target: SARS-CoV-2 Omicron RBD protein (SARS-CoV-2 Omicron (BA.1), S371L | S373P | S375F)
Test: SPR

| Binder | fold decrease of binding affinity against WT RBD [fold] | fold decrease of binding affinity against the IgG form [fold] |
| --- | --- | --- |
| B1 | 3 |  |
| B2 |  | > 50 |
